A word on the Kd: it is a measure of binding affinity in units of concentration.

In assay [1] the target is T1, Ara h 2 (peanut, UniProt Q6PSU2 23-172, 4-hydroxyproline at positions 67, 74, and 86; biotinylated in the BLI assays).
T1 construct: BLI: biotinylated (native) Ara h 2 on streptavidin sensors; also called conglutin-7; peanut allergen
T1 sequence: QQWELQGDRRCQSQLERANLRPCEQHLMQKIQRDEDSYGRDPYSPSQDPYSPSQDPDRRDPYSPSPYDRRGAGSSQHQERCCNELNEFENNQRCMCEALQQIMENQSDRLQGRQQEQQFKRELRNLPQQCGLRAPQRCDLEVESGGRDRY
Kind of assay: SPR, Biacore 3000. The method, then: Calculated equilibrium dissociative constants (K)) for antigen binding to anti-Ara h 2 antibodies was determined using a real-time surface plasmon resonance biosensor (Biacore 3000) assay.
In general terms: Surface plasmon resonance follows binding to a sensor surface in real time, without labels.

In assay [2] the target is T1, Ara h 2. In words: epitope bin summary.
A further assay addresses T2, Peptide_009 (peanut).
T2 construct: also called peptide 9
T2 peptide: WELQGDRRCQSQLER
In words: peptide microarray. The method, then:
(§1) The peptide mapping using microarrays was performed with 40 antibody samples diluted 1:1000 in blocking buffer (see below). Sample dilutions were incubated for 1 hour at 30° C. on multiwell microarray slides. The slides contained 21 individual mini-arrays (1 mini-array per sample dilution).
(§2) Subsequent to sample incubation, secondary fluorescently labeled anti-human-IgG antibody at 1 μg/ml was added into the corresponding wells and left to react for 1 hour.
(§3) Additional control incubations applying the secondary antibody only was performed in parallel on the microarray slides to assess false-positive binding to peptides.

In another assay the target is T3, Peptide_010 (peanut).
T3 construct: also called peptide 10
T3 peptide: QGDRRCQSQLERANL
Kind of assay: peptide microarray. The method, then: as §1, §2, §3

The target of a further assay is T4, Peptide_011 (peanut).
T4 construct: also called peptide 11
T4 peptide: RRCQSQLERANLRPC
Kind of assay: peptide microarray. The method, then:
as §1, §2, §3

For the next assay, the target named is T5, Peptide_012 (peanut).
T5 construct: also called peptide 12
T5 peptide: QSQLERANLRPCEQH
In words: peptide microarray. The protocol:
as §1, §2, §3

Assay [3] has as its target T1, Ara h 2. In words: epitope summary.

B1: 13BU2T4 (antibody, IgG1, V domains shown)
VH: ESGPRLVKPSETLSLTCIVSGDSISSYYWGWIRQPAGRGLEWIGRIFTSGSTTYNPSLKSRVSMSVETSKNQFSLTLTSVTAADTAVYFCARDRRALSSDGNWYWYFDLWGRGTLVAVSS
VL: TQSPSSLSASVGDRVTITCRASQTITRNLNWYQQKSGEAPKLLIYGASILQSGVPSRFTGSGSGTDFTLTISNLQPEDFASYSCQQSDNTPRTFGQGTKVEIK
notes: recombinant IgG1
Consider B1, for which the Kd with Ara h 2 [1] turned out to be 0.00143 nM.

B2: 11FUP1A2 (antibody, IgG1, V domains shown)
VH: ESGGAVVQPGGSLRLSCAASGFTVEDYTIHWVRQVPGKGLEWISLISWDGDRTAYTDSVKGRFTISRDNIKNSLYLLMNSLRTEDTALYYCVKDNGWRSFAYWGQGILVTVST
VL: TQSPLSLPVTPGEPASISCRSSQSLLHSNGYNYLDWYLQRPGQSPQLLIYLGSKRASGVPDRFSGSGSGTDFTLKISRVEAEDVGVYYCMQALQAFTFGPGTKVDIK
notes: recombinant IgG1
On to B2, for which the binding result with Ara h 2 [2] was “binds”.

B3: 15FU1P3A1 (antibody, IgG1, V domains shown)
VH: LVQSGAEVKKPGASVKVSCKASGYTFTRYDINWVRQATGQGLEWMGWMNPKSGETGYAQKFHGRVIMSWNTSISTAYMELSSLRSEDTAVYYCTRGVDSGVWGQGTTVTVSS
VL: TQSPDSLAVSLGERATINCKSSQSVLDSSNNKKFLAWFQQKPGQRPKLLIYWASTRESGVPDRFTGSGSGTDFTLTISSLQAEDVAVYYCQQYYSPPHTFGQGTKLEIK
notes: recombinant IgG1
In the case of B3, the binding result with Peptide_009, with Peptide_010, with Peptide_011, with Peptide_012 and with Ara h 2 [2] was “binds” each time.

B4: 6BU4P2B1 (antibody, IgG1, V domains shown)
VH: VESGGGLIQPGRSLRLSCAVSGFSFDDYAMYWVRQVPGKGLEWVSGISWNSGTIEYADSVKGRFTISRDNAKKSLFLEMNSLRSEDTAIYYCAKGTGWELVSALENWGQGTVVTVSS
VL: QSPSSLSASVGNKVTITCRASQTISDYLNWYQQKPGKAPKLLIYAASSLQSAVPSRFAGSGSGTEFTLTISSLQPEDFATYYCQQSYSPPFTFGPGTKVDIK
notes: recombinant IgG1
As for B4, the binding result with Ara h 2 [2] is “binds”.

B5: 13BU2T5 (antibody, V domains shown)
VH: QVQLQESGPGLVKPSETLSLTCTVSGGSMSSYYWGWIRQPAGRGLEWIGRIFTTGSTIYNASLNSRVSMSVDTSKNQFSLKLTSVTAADTALYFCVRDRRGRSHDSNWYWYFDLWGRGTLVTVSS
VL: RVIITCRASQTLSRNLNWYQQKPGEAPKLLIYGASTLQSGVPSRFTGSGSGTDFTLIISGLQPEDFATYYCQQSDNTPRTFGQGT
Regarding B5, in the assay with Ara h 2 [1], the Kd was determined as 0.112 nM. In other words, the sub-nanomolar range.

B6: 23BU2P31 (antibody, IgG1, V domains shown)
VH: QVQLQESGPGLVEPSETLSLTCTVSGDPFTSYYWTWIRQPAGKGLEWLGRIFTTGSTSYNPSLKSRVTMSVDTSKSQFSLKLTAVTAADTAVYYCARVRRYCSGGRCYPYFYMDVWGKGTTVIVSS
VL: DIRETQSPSTLSASVGDRVTITCRASESISSWLAWYQQKPGKAPKLLIYEASTLETGVPSRFSGSGSGTEFTLTIRSLQPDDFATYYCQHYNSDSLTFGGGTKVEIK
notes: recombinant IgG1
For B6, the binding result with Ara h 2 [3] is listed as “binds”.

B7: 13FU1P1A4 (antibody, IgG1, V domains shown)
VH: VQLVESGGTLGQPGGSLRLSCTASGFTFNRFAINWVRQAPGKGLEWVAAISGTGAVTYYADSVEGRFSISRENSNNTVFLEMNNLRGEDTAVYFCAKDRTPVTNYYGMDVWGQGTTVTVSS
VL: TQSPSSLSASVGDRVIITCRGSQTIDNYLNWYQQKPGKAPRLLISAASSLQGGVPSRFSGSGYGTDFTLTISSLQPEDFATYYCQQTSSTPYTFGQGTKVEIK
notes: recombinant IgG1
For the molecule B7, in the assay with Ara h 2 [2], the binding result is recorded as “binds”.

B8: 15FU1P1A3 (antibody, V domains shown)
VH: QSGAEVKKPGASVKISCKASGYTFTTYAMHWVRQAPGQRLEWMGGINAGNGNPKYSEKFQDRVTITRDTSATTAYMELSSLRSEDTAVYYCARDAAGTRGNWLDPWGQGTLVTVSS
VL: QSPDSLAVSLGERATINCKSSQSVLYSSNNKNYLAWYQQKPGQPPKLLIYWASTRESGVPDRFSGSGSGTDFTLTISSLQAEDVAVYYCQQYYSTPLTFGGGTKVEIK
notes: recombinant IgG1
In the case of B8, the binding result in the assay with Ara h 2 [2] is “binds”.

B9: 89BU7P1B10 (antibody, IgG1, V domains shown)
VH: QESGPGLVKPSETLSLTCTVSGGSIGRHYWSWIRQPPGKGLEWIAYIYDSGSTKYNPSLESRVTISEDTSQNQFSLKLTSVTAADTAIYYCARHNAPYGGNSDDYFEFWGPGTLVTVSS
VL: TQSPSSLSASVGDRVTITCRANETISDYLNWYQGKPGTAPKPLIYAASSLQSGVPSRFSGSGSETYFTLTISSLQPEDFATYYCQQSYSVPLTFGGGTKVESK
notes: recombinant IgG1
With B9, the binding result with Ara h 2 [2] is “binds”.

B10: 27FU1P3A4 (antibody, IgG1, V domains shown)
VH: ESGGGLVQPGGSLRLSCVASGFPFDDFVFAWVRQAPGGGLEWVSAISSRRTNTFYADSVKGRFTISRDNTRKTVNLQMNSLRGEDTAVYYCAKGETRYLEWIIQSSGFDYWGPGTLVAVSS
VL: QSPSSLSASVGERVTITCRANQTISTYLNWYQQKVGKAPKSLIRAASSLESGVPSRFSGSGSGTDFTLTINSLQREDFATYYCQQTYNVPPTFGQGTRVELK
notes: recombinant IgG1
Turning to B10, the binding result with Ara h 2 [2] was “binds”.

B11: 23BU2P34 (antibody, IgG1, V domains shown)
VH: QVQLVESGGLVVQPGGSLRLSCEASGFTFDDYTMHWVRQSPQKGLEWVSLIRWDGSRTEYADSVKGRFTISRDNSKNSLYLQMNTLRADDSAFYFCVKDGGLRYFDSWGQGTLVTVSS
VL: EIVMTQSPLSLPVTPGEPASISCRSSQSLLHSNGIHYLDWYLQKPGQSPQLLIYLGSKRASGVPDRFSGSGSGTDFTLKISRVEAEDVGVYYCMQSLQTFTFGPGTKVDIK
notes: recombinant IgG1
B11: the binding result with Ara h 2 [3] is recorded as “binds”.

B12: 22BU2S4 (antibody, IgG1, V domains shown)
VH: RCKLQESGPGLVKPSESLSLTCNVSGMSISSYYWSWIRQPAGKGLEWIGRIFTTGSTKDNPSLKSRVTMSVDTSRNQFSLTLTSVTAADTAVYYCARLRRVVVPRVSWYFDLWGHGTLVTVSS
VL: TQSPSSLSASVGDRVTITCQASQDISKSLNWYHQKPGKAPTVLIYDASNLETGVPSRFSGSGSGTEFTFTISSLQSEDFGTYYCQQYDNVPMYTFGQGTKVETK
notes: recombinant IgG1
For B12, in the assay with Ara h 2 [3], the binding result is “binds”.

B13: 14FU2P1D6 (antibody, IgG1, V domains shown)
VH: ESGPGLVKPSETLSLTCTVSGDSISSYYWSWIRQPAGKGLEWIGRIFTSGSTNINPSLKSRVTMSVDTSKNQFSLQLGSVTAADTAIYYCAKHTRDFWSDDSRVHWYFNLWGRGTLVTVSS
VL: QSPGTLSLSPGERATLSCRASQSVSNNFLAWYQQQPGQAPSLLIYGASTRATGIPDRFSGSGSGTDFTLTISRLEPEDFAVYFCQQYDSSPYTFGQGTKLEIK
notes: recombinant IgG1; also called 14FU1P1D6
As to B13, the binding result with Ara h 2 [2] is reported as “binds”.

B14: 13BU2T3 (antibody, IgG1, V domains shown)
VH: GGGVVQPGTSLRLSCVASGFTFRDYSMHWVRQAPGKGLEWVSFIRFDGTTKDYRDSVKGRFIISRDDSKNTLYLQMTSLRVEDTALYYCAKDNGWRAFDHWGQGALVTVSS
VL: VMTQSPLSLPVTPGEAASISCRSSQSLLHRNGYIYLDWYLQRPGQSPQLLISFVSKRASGAPDRFSGSGSGTDFTLTISRVEAEDFGVYFCMQALETPWTFGPGTKLEIK
notes: recombinant IgG1
On to B14, for which, in the assay with Ara h 2 [1], the Kd stood at 0.193 nM. This lies in the sub-nanomolar range.

B15: 23BU2P3 (antibody, IgG1, V domains shown)
VH: QVQLVESGGGLVQPGRSLRLSCAASGFIFADYTMHWVRQSPGKDLEWVSRISWNSGGVEYADSVKGRFTISRDNAKNSLYLQMNSLRVEDTALYYCVKDNGYRAFDLWGLGTMVTVSS
VL: DVVMTQSPVSLPVTPGEPASISCRSSQSLVHSNGYNYLDWYLQKPGQSPQLLIYMGSNRASGVPDRFSGSGSGTDFTLKISRVEAEDVGVYYCMQSLQTWTFGQGTKVEIK
notes: recombinant IgG1
With B15, the binding result in the assay with Ara h 2 [3] is reported as “binds”.

These data come from US20240175877A1 (GENERAL HOSPITAL, published 2024).
